Experimental data as given in patent US20160272683A1 (Novo Nordisk, published 2016).
Numbered stars: 1 amine (or outer) side, 2 acyl side, 3 side chain; on linkers, the order of the positions; unused ones are H or OH. * marks the point of attachment. C20 diacid = O=C(O)CCCCCCCCCCCCCCCCCCC(=O)*; C18 diacid = O=C(O)CCCCCCCCCCCCCCCCC(=O)*; γGlu = O=C(O)[C@H](CCC(=O)[*:2])N[*:1]

T1: human amylin 3(a) receptor (human calcitonin receptor co-expressed with RAMP-3) on BHK570/CRE-luc cells (human, UniProt P30988 25-474; O60896 24-148)
T1 sequence (looked up) 1: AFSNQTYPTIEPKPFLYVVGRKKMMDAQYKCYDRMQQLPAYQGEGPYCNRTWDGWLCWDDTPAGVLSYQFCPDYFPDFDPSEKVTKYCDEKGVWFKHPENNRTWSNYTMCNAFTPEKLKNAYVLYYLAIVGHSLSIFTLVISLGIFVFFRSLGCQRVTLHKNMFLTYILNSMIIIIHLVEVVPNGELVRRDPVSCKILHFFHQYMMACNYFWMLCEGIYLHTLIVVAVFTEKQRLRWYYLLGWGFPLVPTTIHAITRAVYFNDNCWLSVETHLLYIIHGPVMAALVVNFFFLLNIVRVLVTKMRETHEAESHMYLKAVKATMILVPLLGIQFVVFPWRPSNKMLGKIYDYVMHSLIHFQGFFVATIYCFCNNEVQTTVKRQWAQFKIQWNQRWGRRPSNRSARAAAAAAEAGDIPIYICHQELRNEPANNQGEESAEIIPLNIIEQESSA
T1 sequence (looked up) 2: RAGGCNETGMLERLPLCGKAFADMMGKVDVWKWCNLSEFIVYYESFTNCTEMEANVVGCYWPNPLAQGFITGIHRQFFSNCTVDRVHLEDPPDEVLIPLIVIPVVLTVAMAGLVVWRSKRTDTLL

T2: human calcitonin receptor on BHK570/CRE-luc cells (human, UniProt P30988 25-474)
T2 sequence (looked up): T1 sequence (looked up) 1

B1: [N-terminal(C20 diacid-gGlu), des1, 9T, 21S, 23Y, 30S, 31G, 33Y]mimylin (peptide)
peptide: {C20 diacid-γGlu}-ASELSTATLGRLSAELHELSTYPRTETGSGSY-NH2
SMILES: CC(C)C[C@H](NC(=O)[C@H](CCCNC(=N)N)NC(=O)CNC(=O)[C@H](CC(C)C)NC(=O)[C@@H](NC(=O)[C@H](C)NC(=O)[C@@H](NC(=O)[C@H](CO)NC(=O)[C@H](CC(C)C)NC(=O)[C@H](CCC(=O)O)NC(=O)[C@H](CO)NC(=O)[C@H](C)NC(=O)CC[C@H](NC(=O)CCCCCCCCCCCCCCCCCCC(=O)O)C(=O)O)[C@@H](C)O)[C@@H](C)O)C(=O)N[C@@H](CO)C(=O)N[C@@H](C)C(=O)N[C@@H](CCC(=O)O)C(=O)N[C@@H](CC(C)C)C(=O)N[C@@H](Cc1c[nH]cn1)C(=O)N[C@@H](CCC(=O)O)C(=O)N[C@@H](CC(C)C)C(=O)N[C@@H](CO)C(=O)N[C@H](C(=O)N[C@@H](Cc1ccc(O)cc1)C(=O)N1CCC[C@H]1C(=O)N[C@@H](CCCNC(=N)N)C(=O)N[C@H](C(=O)N[C@@H](CCC(=O)O)C(=O)N[C@H](C(=O)NCC(=O)N[C@@H](CO)C(=O)NCC(=O)N[C@@H](CO)C(=O)N[C@@H](Cc1ccc(O)cc1)C(N)=O)[C@@H](C)O)[C@@H](C)O)[C@@H](C)O
B2: [N-terminal(C18 diacid-gGlu), des1, 6T, 9V, 30S, 31G, 32T]mimylin (peptide)
peptide: {C18 diacid-γGlu}-ASELTTAVLGRLSAELHELATLPRTETGSGTP-NH2
B3: [N-terminal(C20 diacid-gGlu), des1, 21S, 23Y, 30S, 31G, 33Y]mimylin (peptide)
peptide: {C20 diacid-γGlu}-ASELSTAALGRLSAELHELSTYPRTETGSGSY-NH2
SMILES: CC(C)C[C@H](NC(=O)[C@H](C)NC(=O)[C@H](C)NC(=O)[C@@H](NC(=O)[C@H](CO)NC(=O)[C@H](CC(C)C)NC(=O)[C@H](CCC(=O)O)NC(=O)[C@H](CO)NC(=O)[C@H](C)NC(=O)CC[C@H](NC(=O)CCCCCCCCCCCCCCCCCCC(=O)O)C(=O)O)[C@@H](C)O)C(=O)NCC(=O)N[C@@H](CCCNC(=N)N)C(=O)N[C@@H](CC(C)C)C(=O)N[C@@H](CO)C(=O)N[C@@H](C)C(=O)N[C@@H](CCC(=O)O)C(=O)N[C@@H](CC(C)C)C(=O)N[C@@H](Cc1c[nH]cn1)C(=O)N[C@@H](CCC(=O)O)C(=O)N[C@@H](CC(C)C)C(=O)N[C@@H](CO)C(=O)N[C@H](C(=O)N[C@@H](Cc1ccc(O)cc1)C(=O)N1CCC[C@H]1C(=O)N[C@@H](CCCNC(=N)N)C(=O)N[C@H](C(=O)N[C@@H](CCC(=O)O)C(=O)N[C@H](C(=O)NCC(=O)N[C@@H](CO)C(=O)NCC(=O)N[C@@H](CO)C(=O)N[C@@H](Cc1ccc(O)cc1)C(N)=O)[C@@H](C)O)[C@@H](C)O)[C@@H](C)O
B4: [N-terminal(C18 diacid-gGlu), des1, 5V, 9V, 10V, 30S, 31G]mimylin (peptide)
peptide: {C18 diacid-γGlu}-ASEVSTAVVGRLSAELHELATLPRTETGSGSP-NH2
SMILES: CC(C)C[C@H](NC(=O)[C@H](CCC(=O)O)NC(=O)[C@H](Cc1c[nH]cn1)NC(=O)[C@H](CC(C)C)NC(=O)[C@H](CCC(=O)O)NC(=O)[C@H](C)NC(=O)[C@H](CO)NC(=O)[C@H](CC(C)C)NC(=O)[C@H](CCCNC(=N)N)NC(=O)CNC(=O)[C@@H](NC(=O)[C@@H](NC(=O)[C@H](C)NC(=O)[C@@H](NC(=O)[C@H](CO)NC(=O)[C@@H](NC(=O)[C@H](CCC(=O)O)NC(=O)[C@H](CO)NC(=O)[C@H](C)NC(=O)CC[C@H](NC(=O)CCCCCCCCCCCCCCCCC(=O)O)C(=O)O)C(C)C)[C@@H](C)O)C(C)C)C(C)C)C(=O)N[C@@H](C)C(=O)N[C@H](C(=O)N[C@@H](CC(C)C)C(=O)N1CCC[C@H]1C(=O)N[C@@H](CCCNC(=N)N)C(=O)N[C@H](C(=O)N[C@@H](CCC(=O)O)C(=O)N[C@H](C(=O)NCC(=O)N[C@@H](CO)C(=O)NCC(=O)N[C@@H](CO)C(=O)N1CCC[C@H]1C(N)=O)[C@@H](C)O)[C@@H](C)O)[C@@H](C)O
B5: [N-terminal(C20 diacid-gGlu), des1, 4G, 9V, 23Y, 30S, 31G, 32T]mimylin (peptide)
peptide: {C20 diacid-γGlu}-ASGLSTAVLGRLSAELHELATYPRTETGSGTP-NH2
SMILES: CC(C)C[C@H](NC(=O)CNC(=O)[C@H](CO)NC(=O)[C@H](C)NC(=O)CC[C@H](NC(=O)CCCCCCCCCCCCCCCCCCC(=O)O)C(=O)O)C(=O)N[C@@H](CO)C(=O)N[C@H](C(=O)N[C@@H](C)C(=O)N[C@H](C(=O)N[C@@H](CC(C)C)C(=O)NCC(=O)N[C@@H](CCCNC(=N)N)C(=O)N[C@@H](CC(C)C)C(=O)N[C@@H](CO)C(=O)N[C@@H](C)C(=O)N[C@@H](CCC(=O)O)C(=O)N[C@@H](CC(C)C)C(=O)N[C@@H](Cc1c[nH]cn1)C(=O)N[C@@H](CCC(=O)O)C(=O)N[C@@H](CC(C)C)C(=O)N[C@@H](C)C(=O)N[C@H](C(=O)N[C@@H](Cc1ccc(O)cc1)C(=O)N1CCC[C@H]1C(=O)N[C@@H](CCCNC(=N)N)C(=O)N[C@H](C(=O)N[C@@H](CCC(=O)O)C(=O)N[C@H](C(=O)NCC(=O)N[C@@H](CO)C(=O)NCC(=O)N[C@H](C(=O)N1CCC[C@H]1C(N)=O)[C@@H](C)O)[C@@H](C)O)[C@@H](C)O)[C@@H](C)O)C(C)C)[C@@H](C)O
B6: [N-terminal(C20 diacid-gGlu), des1, 12H, 25H, 30T, 31G, 32T]mimylin (peptide)
peptide: {C20 diacid-γGlu}-ASELSTAALGHLSAELHELATLPHTETGTGTP-NH2
SMILES: CC(C)C[C@H](NC(=O)[C@H](C)NC(=O)[C@H](C)NC(=O)[C@@H](NC(=O)[C@H](CO)NC(=O)[C@H](CC(C)C)NC(=O)[C@H](CCC(=O)O)NC(=O)[C@H](CO)NC(=O)[C@H](C)NC(=O)CC[C@H](NC(=O)CCCCCCCCCCCCCCCCCCC(=O)O)C(=O)O)[C@@H](C)O)C(=O)NCC(=O)N[C@@H](Cc1c[nH]cn1)C(=O)N[C@@H](CC(C)C)C(=O)N[C@@H](CO)C(=O)N[C@@H](C)C(=O)N[C@@H](CCC(=O)O)C(=O)N[C@@H](CC(C)C)C(=O)N[C@@H](Cc1c[nH]cn1)C(=O)N[C@@H](CCC(=O)O)C(=O)N[C@@H](CC(C)C)C(=O)N[C@@H](C)C(=O)N[C@H](C(=O)N[C@@H](CC(C)C)C(=O)N1CCC[C@H]1C(=O)N[C@@H](Cc1c[nH]cn1)C(=O)N[C@H](C(=O)N[C@@H](CCC(=O)O)C(=O)N[C@H](C(=O)NCC(=O)N[C@H](C(=O)NCC(=O)N[C@H](C(=O)N1CCC[C@H]1C(N)=O)[C@@H](C)O)[C@@H](C)O)[C@@H](C)O)[C@@H](C)O)[C@@H](C)O
B7: [N-terminal(C18 diacid-gGlu), des1, 6T, 9V, 30T, 31G, 32T]mimylin (peptide)
peptide: {C18 diacid-γGlu}-ASELTTAVLGRLSAELHELATLPRTETGTGTP-NH2

molecular target: T1, human amylin 3(a) receptor (human …); experiment: cell-based or functional assay

hAmylin-R funct. EC50 (pM), tested with HSA [pM]	Binder
92	B1
30	B2
64	B3
38	B4
66	B5
729	B6
52	B7

molecular target: T2, human calcitonin receptor on …; experiment: cell-based or functional assay

hCTR funct. EC50 (pM), tested with HSA [pM]	Binder
40	B1
75	B2
48	B3
11	B4
35	B5
109	B6
13	B7
